For assay [1], the target named is H3 LAH. The assay is described as follows: ELISA on H3 LAH at 15.625 ng/mL clone 5. (In general: ELISA stands for enzyme-linked immunosorbent assay.)
Assay [2] concerns the target H3 LAH.
Assay [3] concerns the target Recombinant HA antigen H14, A/mallard/Astrakhan/263/1982 (H14N5) (influenza A virus A/mallard/Astrakhan/263/1982 (H14N5)). As to the kind of experiment: ELISA on plate-coated recombinant HA; AUC of the absorbance (490 nm) curve.
Assay [4] addresses Recombinant HA antigen A/Narita/1/2009 (H1N1pdm09) (influenza A virus A/Narita/1/2009 (H1N1pdm09)). The assay is described as above.
Assay [5] concerns the target Recombinant HA antigen H4, A/duck/Czechoslovakia/1956 (H4N6) (influenza A virus A/duck/Czechoslovakia/1956 (H4N6)) (UniProt P19696). Described as above.
The target in assay [6] is Recombinant HA antigen H12, A/mallard/Interior Alaska/7MP0167/2007 (H12N5) (influenza A virus A/mallard/Interior Alaska/7MP0167/2007 (H12N5)). The assay is described as above.
For assay [7], the target named is Recombinant HA antigen H5, A/Laos/JP127/2004 (H5N1) (influenza A virus A/Laos/JP127/2004 (H5N1)). Described as above.
In assay [8] the target is Recombinant HA antigen H18, A/flat-faced bat/Peru/033/2010 (H18N11) (influenza A virus A/flat-faced bat/Peru/033/2010 (H18N11)). The description is as above.
Assay [9] addresses Recombinant HA antigen H10, A/mallard/Interior Alaska/10BM01929R0/2010 (H10N7) (influenza A virus A/mallard/Interior Alaska/10BM01929R0/2010 (H10N7)). Described as above.
In assay [10] the target is Recombinant HA antigen H6, A/mallard/Sweden/81/2002 (H6N1) (influenza A virus A/mallard/Sweden/81/2002 (H6N1)). Described as above.
Assay [11] addresses Recombinant HA antigen H2, A/Japan/305/57 (H2N2) (influenza A virus A/Japan/305/57 (H2N2)) (UniProt P03451). The assay is described as above.
Assay [12] has as its target Recombinant HA antigen H11, A/northern shoveler/Netherlands/18/1999 (H11N9) (influenza A virus A/northern shoveler/Netherlands/18/1999 (H11N9)). Described as above.
Assay [13] deals with Recombinant HA antigen A/Anhui/1/2013 (H7N9) (influenza A virus A/Anhui/1/2013 (H7N9)). Described as above.
The target of assay [14] is Recombinant HA antigen H9, A/guinea fowl/Hong Kong/WF10/99 (H9N2) (influenza A virus A/guinea fowl/Hong Kong/WF10/99 (H9N2)). The assay is described as above.
In assay [15] the target is Recombinant HA antigen H17, A/little yellow-shouldered bat/Guatemala/060/2010 (H17N10) (influenza A virus A/little yellow-shouldered bat/Guatemala/060/2010 (H17N10)). Described as above.
The target in assay [16] is Recombinant HA antigen H1, A/South Carolina/1/1918 (H1N1) (influenza A virus A/South Carolina/1/1918 (H1N1)) (UniProt Q9WFX3). The description is as above.
Assay [17] concerns the target Recombinant HA antigen H15, A/shearwater/Australia/2576/1979 (H15N9) (influenza A virus A/shearwater/Australia/2576/1979 (H15N9)). The description is as above.
The target in assay [18] is Recombinant HA antigen H16, A/black-headed gull/Sweden/5/99 (H16N3) (influenza A virus A/black-headed gull/Sweden/5/99 (H16N3)). Described as above.
In assay [19] the target is Recombinant HA antigen H13, A/black-headed gull/Sweden/1/1999 (H13N6) (influenza A virus A/black-headed gull/Sweden/1/1999 (H13N6)). The assay is described as above.
Assay [20] deals with Recombinant HA antigen H8, A/mallard/Sweden/24/2002 (H8N4) (influenza A virus A/mallard/Sweden/24/2002 (H8N4)). The assay is described as above.
The target in assay [21] is Recombinant HA antigen H3, A/Hong Kong/1/68 (H3N2) (influenza A virus A/Hong Kong/1/68 (H3N2)) (UniProt Q91MA7). Described as above.

In EP4703377A1 one finds absorbance, titer and AUC value data, which are given here for three molecules.

B1: Clone 5 (antibody, V domains shown)
VH: QVQLQESGPGLVKPSETLSLTCTVSGVSMNSNHWSWIRQAPGKELEWIGYIYYTGKTFYNPSLQSRVTVSLDTSKNQFYLKLTSVTAADTAVYYCARRAMASVQRGILRVFDLWGQGKMVTVSS
VL: DIQMTQSPSTLSASVGDRVTITCRASQIIDKWLAWYQHKPGKAPKLLIYEASNLETGVPSRFSGSGSGTEFTLTISSLQPDDFATYFCQQYKSYLPYTFGQGTKLEIK
Turning to B1, in assay [1], the absorbance turned out to be 0.877 absorbance. Besides, the titer in assay [2] was 0.92 AU/mL.

B2: Clone 7 (antibody, V domains shown)
VH: QVQLQESGPGLVKPSETLSLTCSVSGGPLTSSTYFWGWIRQPPGKGLEWLGSINFRGTTDNAPSLKSRVTLSIDTSTHQFSLRLSSVTAKDTAVYYCARHTQRLTVFTVVHGFDLWGQGTVVSVSS
VL: QSALTQPASVSGSPGQSITISCTGATGDIGVSDFVSWYQQHPGKAPKLIIFDVTNRPSGVSNRFSGSKSVNTASLTISGLQAEDEADYYCCLYSTRSRDWEFGGGTKLTVL
For B2, the AUC value in assay [3] turned out to be 3320; in assay [4], 3350; in [5], 3250; in [6], 3340; in assay [7], 3290; in [8], 3160. Further, the AUC value stood at 3220 in assay [9]; 3220 in assay [10]; 3300 in assay [11]; 300 in assay [12]; 3260 in [13]; 3240 in [14]. Also, the AUC value in assay [15] stood at 3350; in [16], 3320; in [17], 3270; in [18], 3200; in [19] it was 1560; in [20], 3320.

B3: Clone 6 (antibody, V domains shown)
VH: QVQLEQSGAEVKKPGSSVKVSCKASGPMFSRSAFSWVRQAPGQGLEWMGRIIPTVDLKNYAQKFQGRVTFTADKSTATSYMELRSLKSEDTAVYYCARMGSGSSYYGMDVWGLGTTVTVSS
VL: DIVMTQSPLSLPVIPGEPASISCRSSQSLLQSNGNNYLDWYLQKPGQSPQLLIYLGSNRASGVPDRFSGSGSGTDFTLTISRVEAEDVGVYYCLQARQSSVLTFGGGTKLEIK
Consider B3, for which the AUC value came out at 3360 in assay [3]; 2480 in assay [4]; 3310 in assay [5]; 98.5 in [6]; 3240 in assay [7]; 3240 in [8]. The AUC value came to 3330 in assay [9]; 2800 in [10]; 3300 in assay [21]; 3310 in [11]; 757 in assay [12]; 3320 in assay [13]. Also, the AUC value in assay [14] is 632; in assay [15] it was 3370; in [16] it was 3360; in [17], 3360; in assay [18], 290; in [19], 117. The AUC value in [20] was found to be 474.
